92 variants from IntAct's records for PubMed 29039417 can be followed below.

B1: BBSome complex member BBS2 (Homo sapiens), Q9BXC9 (parent)
chain: MLLPVFTLKLRHKISPRMVAIGRYDGTHPCLAAATQTGKVFIHNPHTRNQHVSASRVFQSPLESDVSLLSINQAVSCLTAGVLNPELGYDALLVGTQTNLLAYDVYNNSDLFYREVADGANAIVLGTLGDISSPLAIIGGNCALQGFNHEGSDLFWTVTGDNVNSLALCDFDGDGKKELLVGSEDFDIRVFKEDEIVAEMTETEIVTSLCPMYGSRFGYALSNGTVGVYDKTSRYWRIKSKNHAMSIHAFDLNSDGVNELITGWSNGKVDARSDRTGEVIFKDNFSSAIAGVVEGDYRMDGHIQLICCSVDGEIRGYLPGTAEMRGNLMDTSAEQDLIRELSQKKQNLLLELRNYEENAKAELASPLNEADGHRGIIPANTRLHTTLSVSLGNETQTAHTELRISTSNDTIIRAVLIFAEGIFTGESHVVHPSIHNLSSSICIPIVPPKDVPVDLHLKAFVGYRSSTQFHVFESTRQLPRFSMYALTSLDPASEPISYVNFTIAERAQRVVVWLGQNFLLPEDTHIQNAPFQVCFTSLRNGGHLHIKIKLSGEITINTDDIDLAGDIIQSMASFFAIEDLQVEADFPVYFEELRKVLVKVDEYHSVHQKLSADMADHSNLIRSLLVGAEDARLMRDMKTMKSRYMELYDLNRDLLNGYKIRCNNHTELLGNLKAVNQAIQRAGRLRVGKPKNQVITACRDAIRSNNINTLFKIMRVGTASS
partner: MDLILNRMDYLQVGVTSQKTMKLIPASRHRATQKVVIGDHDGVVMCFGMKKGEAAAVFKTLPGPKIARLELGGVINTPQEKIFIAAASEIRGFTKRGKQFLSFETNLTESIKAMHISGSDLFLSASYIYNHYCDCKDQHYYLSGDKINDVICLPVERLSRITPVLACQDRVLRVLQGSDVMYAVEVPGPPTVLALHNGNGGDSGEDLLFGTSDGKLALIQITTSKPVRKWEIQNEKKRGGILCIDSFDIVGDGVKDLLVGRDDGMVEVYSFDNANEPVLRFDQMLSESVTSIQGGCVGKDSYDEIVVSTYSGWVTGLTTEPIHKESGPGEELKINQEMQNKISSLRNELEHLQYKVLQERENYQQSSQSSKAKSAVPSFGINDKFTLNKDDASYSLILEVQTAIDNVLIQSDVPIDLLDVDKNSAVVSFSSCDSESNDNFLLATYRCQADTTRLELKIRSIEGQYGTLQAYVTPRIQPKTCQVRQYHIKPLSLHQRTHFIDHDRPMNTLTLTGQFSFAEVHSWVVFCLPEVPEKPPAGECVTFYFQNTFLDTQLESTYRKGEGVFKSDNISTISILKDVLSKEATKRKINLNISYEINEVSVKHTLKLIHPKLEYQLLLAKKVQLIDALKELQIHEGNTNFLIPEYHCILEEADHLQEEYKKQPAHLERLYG

In the assay the parent is B1. Particulars: with BBS7, Q8IWZ6-2.
On to E356K, for which the “effect of a mutation on the interaction” value is recorded as “with no effect”.

With A359E, the “effect of a mutation on the interaction” value is given as “with no effect”.

Regarding A359K, the “effect of a mutation on the interaction” value is “with no effect”.

Take Q335A: the “effect of a mutation on the interaction” value is given as “with no effect”.

As for Q335K, the “effect of a mutation on the interaction” value is recorded as “with no effect”.

For Q335E, the “effect of a mutation on the interaction” value is reported as “with no effect”.

Consider N347K, for which the “effect of a mutation on the interaction” value is on record as “with no effect”.

N347A: the “effect of a mutation on the interaction” value is listed as “with no effect”.

Regarding N347E, the “effect of a mutation on the interaction” value is “with no effect”.

Regarding N358E, the “effect of a mutation on the interaction” value is reported as “with no effect”.

As for N358K, the “effect of a mutation on the interaction” value is “with no effect”.

Turning to N358A, the “effect of a mutation on the interaction” value was “with no effect”.

For the variant Q346E, the “effect of a mutation on the interaction” value is given as “with no effect”.

Q346K: the “effect of a mutation on the interaction” value is on record as “with no effect”.

In the case of Q346A, the “effect of a mutation on the interaction” value is listed as “with no effect”.

On to E340K, for which the “effect of a mutation on the interaction” value was “with no effect”.

As for E340A, the “effect of a mutation on the interaction” value was “with no effect”.

Consider D330E, for which the “effect of a mutation on the interaction” value is recorded as “with no effect”.

Regarding D330K, the “effect of a mutation on the interaction” value is “with no effect”.

For D330A, the “effect of a mutation on the interaction” value is “with no effect”.

For the variant N327A, the “effect of a mutation on the interaction” value is “with no effect”.

With N327E, the “effect of a mutation on the interaction” value is “with no effect”.

N327K: the “effect of a mutation on the interaction” value is recorded as “with no effect”.

For the variant D336A, the “effect of a mutation on the interaction” value is on record as “with no effect”.

As for D336K, the “effect of a mutation on the interaction” value was “with no effect”.

For the variant D336E, the “effect of a mutation on the interaction” value is given as “with no effect”.

In the case of Q343K, the “effect of a mutation on the interaction” value is on record as “with no effect”.

Q343A: the “effect of a mutation on the interaction” value is on record as “with no effect”.

Take Q343E: the “effect of a mutation on the interaction” value is on record as “with no effect”.

For the variant S332A, the “effect of a mutation on the interaction” value is “with no effect”.

S332K: the “effect of a mutation on the interaction” value was “with no effect”.

With S332E, the “effect of a mutation on the interaction” value is reported as “with no effect”.

Regarding L350E, the “effect of a mutation on the interaction” value was “with no effect”.

L350A: the “effect of a mutation on the interaction” value is on record as “with no effect”.

As for L350K, the “effect of a mutation on the interaction” value is “with no effect”.

T331A: the “effect of a mutation on the interaction” value was “with no effect”.

As to T331E, the “effect of a mutation on the interaction” value is “with no effect”.

In the case of T331K, the “effect of a mutation on the interaction” value is “with no effect”.

For the variant E351A, the “effect of a mutation on the interaction” value is recorded as “with no effect”.

On to E351K, for which the “effect of a mutation on the interaction” value is “with no effect”.

Consider R339K, for which the “effect of a mutation on the interaction” value is given as “with no effect”.

On to R339A, for which the “effect of a mutation on the interaction” value is given as “with no effect”.

Consider R339E, for which the “effect of a mutation on the interaction” value is given as “with no effect”.

With A333K, the “effect of a mutation on the interaction” value is recorded as “with no effect”.

As for A333E, the “effect of a mutation on the interaction” value is “with no effect”.

As for L352E, the “effect of a mutation on the interaction” value is on record as “with no effect”.

For L352K, the “effect of a mutation on the interaction” value was “with no effect”.

In the case of L352A, the “effect of a mutation on the interaction” value was “with no effect”.

E357A: the “effect of a mutation on the interaction” value was “with no effect”.

Consider E357K, for which the “effect of a mutation on the interaction” value is on record as “with no effect”.

In the case of L348A, the “effect of a mutation on the interaction” value was “with no effect”.

As for L348K, the “effect of a mutation on the interaction” value is reported as “with no effect”.

For the variant L348E, the “effect of a mutation on the interaction” value is on record as “with no effect”.

Take R353E: the “effect of a mutation on the interaction” value was “with no effect”.

As to R353A, the “effect of a mutation on the interaction” value was “with no effect”.

Consider R353K, for which the “effect of a mutation on the interaction” value is reported as “with no effect”.

For the variant L349A, the “effect of a mutation on the interaction” value is reported as “with no effect”.

With L349K, the “effect of a mutation on the interaction” value is listed as “with no effect”.

For L349E, the “effect of a mutation on the interaction” value is recorded as “with no effect”.

Turning to G326A, the “effect of a mutation on the interaction” value is listed as “with no effect”.

As for G326E, the “effect of a mutation on the interaction” value is listed as “with no effect”.

Consider G326K, for which the “effect of a mutation on the interaction” value was “with no effect”.

S342K: the “effect of a mutation on the interaction” value is given as “with no effect”.

Turning to S342E, the “effect of a mutation on the interaction” value is recorded as “with no effect”.

Turning to S342A, the “effect of a mutation on the interaction” value was “with no effect”.

As to M329A, the “effect of a mutation on the interaction” value is listed as “with no effect”.

For M329K, the “effect of a mutation on the interaction” value is “with no effect”.

For the variant M329E, the “effect of a mutation on the interaction” value is “with no effect”.

Consider L337K, for which the “effect of a mutation on the interaction” value is reported as “with no effect”.

For L337A, the “effect of a mutation on the interaction” value was “with no effect”.

Consider L337E, for which the “effect of a mutation on the interaction” value is listed as “with no effect”.

As to E334A, the “effect of a mutation on the interaction” value was “with no effect”.

Regarding E334K, the “effect of a mutation on the interaction” value is on record as “with no effect”.

For R325K, the “effect of a mutation on the interaction” value is listed as “with no effect”.

As to R325E, the “effect of a mutation on the interaction” value was “with no effect”.

Take R325A: the “effect of a mutation on the interaction” value is recorded as “with no effect”.

On to Y355E, for which the “effect of a mutation on the interaction” value is “with no effect”.

On to Y355K, for which the “effect of a mutation on the interaction” value is given as “with no effect”.

Y355A: the “effect of a mutation on the interaction” value is “with no effect”.

In the case of L341A, the “effect of a mutation on the interaction” value is given as “with no effect”.

Take L341E: the “effect of a mutation on the interaction” value is “with no effect”.

Consider L341K, for which the “effect of a mutation on the interaction” value was “with no effect”.

As for K344E, the “effect of a mutation on the interaction” value is given as “with no effect”.

As for K344A, the “effect of a mutation on the interaction” value is listed as “with no effect”.

As to I338A, the “effect of a mutation on the interaction” value was “with no effect”.

Consider I338K, for which the “effect of a mutation on the interaction” value was “with no effect”.

As to I338E, the “effect of a mutation on the interaction” value is given as “with no effect”.

K345A: the “effect of a mutation on the interaction” value is “with no effect”.

On to K345E, for which the “effect of a mutation on the interaction” value is “with no effect”.

On to L328A, for which the “effect of a mutation on the interaction” value is “with no effect”.

For L328K, the “effect of a mutation on the interaction” value was “with no effect”.

Regarding L328E, the “effect of a mutation on the interaction” value is listed as “with no effect”.
